Assay results published in patent US20230038638A1, “COMPLEMENT FACTOR I-RELATED COMPOSITIONS AND METHODS” (published 2023).
Changes are numbered by the printed parent chain.

Assays:
[1] = molecular target: T1, human C4b (human) (UniProt P0C0L5)
T1 sequence: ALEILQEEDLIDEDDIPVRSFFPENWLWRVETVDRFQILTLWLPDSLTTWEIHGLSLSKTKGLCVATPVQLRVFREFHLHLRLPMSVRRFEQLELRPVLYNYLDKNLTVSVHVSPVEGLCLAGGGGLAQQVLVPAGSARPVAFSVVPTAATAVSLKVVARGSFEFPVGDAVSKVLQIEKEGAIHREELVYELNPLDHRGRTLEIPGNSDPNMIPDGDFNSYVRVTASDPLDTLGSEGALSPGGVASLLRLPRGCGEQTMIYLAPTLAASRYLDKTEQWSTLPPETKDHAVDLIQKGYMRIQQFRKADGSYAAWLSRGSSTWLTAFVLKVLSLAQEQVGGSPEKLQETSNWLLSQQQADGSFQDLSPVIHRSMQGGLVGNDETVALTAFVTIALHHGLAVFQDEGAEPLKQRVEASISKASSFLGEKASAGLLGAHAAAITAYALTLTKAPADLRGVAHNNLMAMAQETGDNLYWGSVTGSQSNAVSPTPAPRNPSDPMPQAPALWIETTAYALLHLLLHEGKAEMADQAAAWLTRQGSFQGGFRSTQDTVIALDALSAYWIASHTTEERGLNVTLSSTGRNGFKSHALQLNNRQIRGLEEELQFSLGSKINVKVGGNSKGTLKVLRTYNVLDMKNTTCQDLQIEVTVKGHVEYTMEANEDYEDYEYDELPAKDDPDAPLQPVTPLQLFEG

[2] = molecular target: soluble human C3b (human) (UniProt P01024)
[3] = molecular target: T2, human C4b (human) (UniProt P0C0L4)
T2 sequence: T1 sequence with T151A, G317D, L364P, S365C, I368L, H369D, S420N, A451V, R454L, A530S

[4] = molecular target: soluble human C3b (human) (UniProt P01024); remark: listed apart in the source
[5] = molecular target: T1, human C4b (human); remark: listed apart in the source
[6] = molecular target: T2, human C4b (human); remark: listed apart in the source

Row | C4c EC50 [1] | iC3b EC50 [2] | C4b Screen Ref Fold (fold of CFI-HSA wild type) [3] | iC3b Screen Ref Fold (fold of CFI-HSA wild type) [4] | C4b Screen Ref Fold (fold of reference) [3] | C4b Screen Ref Fold (fold of CFI-HSA wild type) [5] | iC3b Screen Ref Fold (fold of reference) [4] | C4c EC50 (nM) [6] | C4b Screen Ref Fold (fold relative to CFI-HSA wild type) [5] | iC3b Screen Ref Fold (fold relative to CFI-HSA wild type) [4] | C4c EC50 [6] | Substance
1 | 9.1 nM | 4.8 nM |  |  |  |  |  |  |  |  |  | CFI-HSA variant E530F; P558S; E457G; E461Q; N531G (enzyme)
2 | 124 nM |  | 2.93 | 0.41 |  |  |  |  |  |  |  | CFI-HSA variant R557K; N531M (enzyme)
3 | 6.4 nM | 3.4 nM | 4.4 | 1.08 |  |  |  |  |  |  |  | CFI-HSA variant D425K; E530F; E457G; E461Q; N531G (enzyme)
4 | 153 nM | 7 nM | 0.77 | 2.11 |  |  |  |  |  |  |  | CFI-HSA variant D425K; P558S (enzyme)
5 | 6.2 nM | 3.2 nM | 4.48 | 0.99 |  |  |  |  |  |  |  | CFI-HSA variant D425R; E530F; E457G; E461Q; N531G (enzyme)
6 | 5 nM |  | 4.13 | 0.87 |  |  |  |  |  |  |  | CFI-HSA variant D425R; E530F; P558G; E457G; E461Q; N531G (enzyme)
7 | 6.8 nM | 3.3 nM | 3.88 | 2.74 |  |  |  |  |  |  |  | CFI-HSA variant N531G; N422K; T377G (enzyme)
8 | 51.1 nM | 4.1 nM | 2.54 | 2.67 |  |  |  |  |  |  |  | CFI-HSA variant N422K; E461Q (enzyme)
9 | 5 nM | 2.4 nM | 4.24 | 1.7 |  |  |  |  |  |  |  | CFI-HSA variant N531G; E461Q; N422K; T377G (enzyme)
10 |  | 24.6 nM |  | 0.73 | 1.03 | 0.65 | 1.4 | 855 nM |  |  |  | CFI-HSA variant Y563H (enzyme)
11 | 7.5 nM | 3.5 nM | 4.25 | 2.99 |  |  |  |  |  |  |  | CFI-HSA variant E457G; N422K; T377G (enzyme)
12 | 4.6 nM | 4 nM | 4.41 | 1.29 |  |  |  |  |  |  |  | CFI-HSA variant D425R; P558S; E457G; E461Q; N531G (enzyme)
13 | 3.5 nM | 3.7 nM | 3.92 | 0.78 |  |  |  |  |  |  |  | CFI-HSA variant T377G; N422K; E457G; E461Q; N531G (enzyme)
14 | 7.2 nM | 3.7 nM | 4.01 | 1.81 |  |  |  |  |  |  |  | CFI-HSA variant N531G; E461Q; N422K (enzyme)
15 | 78.7 nM | 288 nM | 2.91 | 0.09 |  |  |  |  |  |  |  | CFI-HSA variant R557A; N531M (enzyme)
16 | 5 nM | 4.9 nM | 4.1 | 2.28 |  |  |  |  |  |  |  | CFI-HSA variant N531G; E461Q; T377G (enzyme)
17 | 26.3 nM | 79.4 nM | 3.97 | 0.21 |  |  |  |  |  |  |  | CFI-HSA variant R557A; N531M; Y403F; K504Y; E457G; E461Q (enzyme)
18 | > 1000 nM | 10.8 nM | 0.09 | 1.52 |  |  |  |  |  |  |  | CFI-HSA variant D425K; Y408M; F537K (enzyme)

Row | C4c EC50 [1] | iC3b EC50 [2] | C4b Screen Ref Fold (fold of CFI-HSA wild type) [3] | iC3b Screen Ref Fold (fold of CFI-HSA wild type) [4] | C4b Screen Ref Fold (fold of reference) [3] | C4b Screen Ref Fold (fold of CFI-HSA wild type) [5] | iC3b Screen Ref Fold (fold of reference) [4] | C4c EC50 (nM) [6] | C4b Screen Ref Fold (fold relative to CFI-HSA wild type) [5] | iC3b Screen Ref Fold (fold relative to CFI-HSA wild type) [4] | C4c EC50 [6] | Substance
19 | 8.2 nM |  | 3.96 | 1.77 |  |  |  |  |  |  |  | CFI-HSA variant K504R; E530F; P558G; E457G; E461Q; N531G (enzyme)
20 |  | 2.5 nM | 4.26 | 2.07 |  |  |  | 6 nM | 3.28 | 0.09 |  | CFI-HSA variant D425K; E457G; E461Q; N531G (enzyme)
21 | 4.8 nM |  | 4.14 | 1.58 |  |  |  |  |  |  |  | CFI-HSA variant K504R; D425R; P558G; E457G; E461Q; N531G (enzyme)
22 |  | 25.4 nM |  |  | 1.6 |  | 1.05 | 482 nM |  |  |  | CFI-HSA variant E457M (enzyme)
23 |  | 20.4 nM |  |  | 1.17 |  | 0.6 |  |  |  | 197 nM | CFI-HSA variant G406H (enzyme)
24 |  | 51.4 nM |  |  | 0.14 |  | 0.21 | > 1000 nM |  |  |  | CFI-HSA variant E457L (enzyme)
25 |  | 17.6 nM |  |  | 3.47 |  | 1.04 | 219 nM |  |  |  | CFI-HSA variant N531L (enzyme)
26 |  | 2.5 nM | 3.85 | 2.84 |  |  |  | 5 nM |  |  |  | CFI-HSA variant N422K; E457G; E461Q; Q467K; N531G (enzyme)
27 |  | 5.2 nM | 0.09 | 3 |  |  |  | > 1000 nM |  |  |  | CFI-HSA variant K504R; E530F; D425R; P558S (enzyme)
28 |  | 19 nM |  |  | 1.31 |  | 1.31 | 474 nM |  |  |  | CFI-HSA variant G406R (enzyme)
29 |  | 4.2 nM | 4.01 | 1.69 |  |  |  | 26.1 nM |  |  |  | CFI-HSA variant E416A; E457G; E461Q; N531G (enzyme)
30 |  | 30.7 nM |  |  | 0.91 |  | 0.68 |  |  |  | > 1000 nM | CFI-HSA variant G406Q (enzyme)
31 |  | 29.1 nM |  |  | 0.17 |  | 1.21 | 930 nM |  |  |  | CFI-HSA variant Y408M (enzyme)
32 | 7.4 nM |  | 4.2 | 1.18 |  |  |  |  |  |  |  | CFI-HSA variant K504R; D425R; E530F; E457G; E461Q; N531G (enzyme)
33 |  | 9.5 nM |  |  | 4.58 |  | 1.37 | 135 nM |  |  |  | CFI-HSA variant E457K (enzyme)
34 |  | 5.5 nM | 4.03 | 2.12 |  |  |  | 9 nM |  |  |  | CFI-HSA variant K504R; P558S; E457G; E461Q; N531G (enzyme)
35 |  | 49.1 nM |  |  | 0.05 |  | 0.84 | 530 nM |  |  |  | CFI-HSA variant Y408Q (enzyme)
36 |  | 17.5 nM | 1.69 | 1.61 |  |  |  | 156 nM |  |  |  | CFI-HSA variant N460G (enzyme)
